Source: patent publication US20190233493A1 (Sanofi, published 2019)
*1 amine or outer side, *2 acyl side, *3 side chain or, on linkers, in order; H or OH if unused. Primed or numbered codes have the meaning given here. Side-chain parts run from the residue outwards. [ ]: non-standard residue; d: D form. The star is where a group is joined. γGlu = O=C(O)[C@H](CCC(=O)[*:2])N[*:1]; Stearoyl = CCCCCCCCCCCCCCCCCC(=O)*; Palmitoyl = CCCCCCCCCCCCCCCC(=O)*; αMeK = C[C@](N)(CCCCN)C(=O)O; Nle = CCCC[C@H](N)C(=O)O; PEG2′ = PEG2 spacer unit; PEG2″ = not defined here; Aib = CC(C)(N)C(=O)O

Biological target: T1, RXFP1 receptor (UniProt Q9HBX9 1-757, limits assumed)
T1 sequence (looked up): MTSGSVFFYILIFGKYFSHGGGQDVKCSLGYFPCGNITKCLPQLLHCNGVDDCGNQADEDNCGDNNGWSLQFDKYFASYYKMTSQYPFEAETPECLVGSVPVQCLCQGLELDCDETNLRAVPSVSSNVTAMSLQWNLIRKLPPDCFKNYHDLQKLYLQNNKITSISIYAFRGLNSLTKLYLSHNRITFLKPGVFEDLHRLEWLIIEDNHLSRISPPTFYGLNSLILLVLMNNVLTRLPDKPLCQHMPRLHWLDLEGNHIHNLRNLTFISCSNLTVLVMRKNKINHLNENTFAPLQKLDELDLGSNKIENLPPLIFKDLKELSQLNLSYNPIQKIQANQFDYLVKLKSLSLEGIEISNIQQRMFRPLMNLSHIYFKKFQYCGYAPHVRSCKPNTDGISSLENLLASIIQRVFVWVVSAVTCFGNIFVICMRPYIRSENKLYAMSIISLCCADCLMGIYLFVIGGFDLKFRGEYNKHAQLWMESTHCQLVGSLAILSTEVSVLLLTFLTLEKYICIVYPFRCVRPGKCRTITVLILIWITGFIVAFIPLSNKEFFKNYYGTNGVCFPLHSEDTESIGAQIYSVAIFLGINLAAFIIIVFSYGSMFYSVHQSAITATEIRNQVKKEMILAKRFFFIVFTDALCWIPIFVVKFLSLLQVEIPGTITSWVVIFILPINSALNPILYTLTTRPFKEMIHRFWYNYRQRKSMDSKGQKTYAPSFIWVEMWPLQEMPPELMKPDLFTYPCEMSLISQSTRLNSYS
Test: cell-based or functional assay

B1: peptide of SEQ ID NO: 1 (peptide)
peptide: Ac-LEGREKVRAAI[Aib][Aib]EG[Nle]STWS[Aib]RKK(Palmitoyl)-NH2
SMILES: CCCCCCCCCCCCCCCC(=O)NCCCC[C@H](NC(=O)[C@H](CCCCN)NC(=O)[C@H](CCCNC(=N)N)NC(=O)C(C)(C)NC(=O)[C@H](CO)NC(=O)[C@H](Cc1c[nH]c2ccccc12)NC(=O)[C@@H](NC(=O)[C@H](CO)NC(=O)[C@H](CCCC)NC(=O)CNC(=O)[C@H](CCC(=O)O)NC(=O)C(C)(C)NC(=O)C(C)(C)NC(=O)[C@@H](NC(=O)[C@H](C)NC(=O)[C@H](C)NC(=O)[C@H](CCCNC(=N)N)NC(=O)[C@@H](NC(=O)[C@H](CCCCN)NC(=O)[C@H](CCC(=O)O)NC(=O)[C@H](CCCNC(=N)N)NC(=O)CNC(=O)[C@H](CCC(=O)O)NC(=O)[C@H](CC(C)C)NC(C)=O)C(C)C)[C@@H](C)CC)[C@@H](C)O)C(N)=O
EC50 (nM), OVCAR 5 cells (cAMP): 85.3 nM
EMax, OVCAR 5 cells (cAMP): 85%

B2: peptide of SEQ ID NO: 5 (peptide)
peptide: Ac-LEGREKVRAQI[Aib][Aib]EGMSTWS[Aib]RK([γGlu-γGlu-Palmitoyl])-NH2
SMILES: CCCCCCCCCCCCCCCC(=O)N[C@@H](CCC(=O)N[C@@H](CCC(=O)NCCCC[C@H](NC(=O)[C@H](CCCNC(=N)N)NC(=O)C(C)(C)NC(=O)[C@H](CO)NC(=O)[C@H](Cc1c[nH]c2ccccc12)NC(=O)[C@@H](NC(=O)[C@H](CO)NC(=O)[C@H](CCSC)NC(=O)CNC(=O)[C@H](CCC(=O)O)NC(=O)C(C)(C)NC(=O)C(C)(C)NC(=O)[C@@H](NC(=O)[C@H](CCC(N)=O)NC(=O)[C@H](C)NC(=O)[C@H](CCCNC(=N)N)NC(=O)[C@@H](NC(=O)[C@H](CCCCN)NC(=O)[C@H](CCC(=O)O)NC(=O)[C@H](CCCNC(=N)N)NC(=O)CNC(=O)[C@H](CCC(=O)O)NC(=O)[C@H](CC(C)C)NC(C)=O)C(C)C)[C@@H](C)CC)[C@@H](C)O)C(N)=O)C(=O)O)C(=O)O
EC50 (nM), OVCAR 5 cells (cAMP): 86.8 nM
EMax, OVCAR 5 cells (cAMP): 105%

B3: peptide of SEQ ID NO: 50 (peptide)
peptide: Ac-LEGREKVRAQI[Aib][Aib]EG[Nle]STWS[Aib]RKK([PEG2′-Palmitoyl])-NH2
EC50 (nM), OVCAR 5 cells (cAMP): 75.9 nM
EMax, OVCAR 5 cells (cAMP): 95%

B4: peptide of SEQ ID NO: 51 (peptide)
peptide: Ac-LEGREKVRAQI[Aib][Aib]EG[Nle]STWS[Aib]RKK(Ac)K([PEG2′-PEG2′-Stearoyl])-NH2
EC50 (nM), OVCAR 5 cells (cAMP): 71.2 nM
EMax, OVCAR 5 cells (cAMP): 100%

B5: peptide of SEQ ID NO: 52 (peptide)
peptide: Ac-LEGREKVRAQI[Aib][Aib]EG[Nle]STWS[Aib]RKK(Ac)K([PEG2′-PEG2′-PEG2′-Stearoyl])-NH2
EC50 (nM), OVCAR 5 cells (cAMP): 56 nM
EMax, OVCAR 5 cells (cAMP): 98%

B6: peptide of SEQ ID NO: 53 (peptide)
peptide: Ac-LEGREKVRAQI[Aib][Aib]EG[Nle]STWS[Aib]RKK([PEG2′-γGlu-Palmitoyl])-NH2
EC50 (nM), OVCAR 5 cells (cAMP): 15.3 nM
EMax, OVCAR 5 cells (cAMP): 97%

B7: peptide of SEQ ID NO: 54 (peptide)
peptide: Ac-ELEGREKVRAAI[Aib][Aib]EG[Nle]STWS[Aib]RKK([PEG2′-γGlu-γGlu-Palmitoyl])-NH2
EC50 (nM), OVCAR 5 cells (cAMP): 18.6 nM
EMax, OVCAR 5 cells (cAMP): 98%

B8: peptide of SEQ ID NO: 55 (peptide)
peptide: Ac-LEGREKVRAQI[Aib][Aib]EG[Nle]STWS[Aib]RKK([PEG2′-γGlu-γGlu-γGlu-Palmitoyl])-NH2
EC50 (nM), OVCAR 5 cells (cAMP): 19.3 nM
EMax, OVCAR 5 cells (cAMP): 94%

B9: peptide of SEQ ID NO: 6 (peptide)
peptide: Ac-ELEGREKVRAAI[Aib][Aib]EG[Nle]STWS[Aib]RKKK([γGlu-γGlu-γGlu-Palmitoyl])-NH2
SMILES: CCCCCCCCCCCCCCCC(=O)N[C@@H](CCC(=O)N[C@@H](CCC(=O)N[C@@H](CCC(=O)NCCCC[C@H](NC(=O)[C@H](CCCCN)NC(=O)[C@H](CCCCN)NC(=O)[C@H](CCCNC(=N)N)NC(=O)C(C)(C)NC(=O)[C@H](CO)NC(=O)[C@H](Cc1c[nH]c2ccccc12)NC(=O)[C@@H](NC(=O)[C@H](CO)NC(=O)[C@H](CCCC)NC(=O)CNC(=O)[C@H](CCC(=O)O)NC(=O)C(C)(C)NC(=O)C(C)(C)NC(=O)[C@@H](NC(=O)[C@H](C)NC(=O)[C@H](C)NC(=O)[C@H](CCCNC(=N)N)NC(=O)[C@@H](NC(=O)[C@H](CCCCN)NC(=O)[C@H](CCC(=O)O)NC(=O)[C@H](CCCNC(=N)N)NC(=O)CNC(=O)[C@H](CCC(=O)O)NC(=O)[C@H](CC(C)C)NC(=O)[C@H](CCC(=O)O)NC(C)=O)C(C)C)[C@@H](C)CC)[C@@H](C)O)C(N)=O)C(=O)O)C(=O)O)C(=O)O
EC50 (nM), OVCAR 5 cells (cAMP): 18 nM
EMax, OVCAR 5 cells (cAMP): 100%

B10: peptide of SEQ ID NO: 56 (peptide)
peptide: Ac-LEGREKVRAQI[Aib][Aib]EG[Nle]STWS[Aib]RKKK([PEG2′-PEG2′-γGlu-Stearoyl])-NH2
EC50 (nM), OVCAR 5 cells (cAMP): 0.51 nM
EMax, OVCAR 5 cells (cAMP): 95%

B11: peptide of SEQ ID NO: 57 (peptide)
peptide: Ac-ELEGREKVRAAI[Aib][Aib]EG[Nle]STWS[Aib]RKK([PEG2′-PEG2′-γGlu-γGlu-Palmitoyl])-NH2
EC50 (nM), OVCAR 5 cells (cAMP): 4.4 nM
EMax, OVCAR 5 cells (cAMP): 93%

B12: peptide of SEQ ID NO: 58 (peptide)
peptide: Ac-LEGREKVRAQI[Aib][Aib]EG[Nle]STWS[Aib]RKK([PEG2′-PEG2′-γGlu-γGlu-γGlu-Palmitoyl])-NH2
EC50 (nM), OVCAR 5 cells (cAMP): 14.8 nM
EMax, OVCAR 5 cells (cAMP): 83%

B13: peptide of SEQ ID NO: 59 (peptide)
peptide: Ac-LEGREKVRAK(Ac)I[Aib][Aib]EG[Nle]STWS[Aib]RKK([PEG2′-PEG2′-γGlu-γGlu-γGlu-Palmitoyl])-NH2
EC50 (nM), OVCAR 5 cells (cAMP): 28.2 nM
EMax, OVCAR 5 cells (cAMP): 85%

B14: peptide of SEQ ID NO: 60 (peptide)
peptide: Ac-LEGREKVRAK(Ac)I[Aib][Aib]EG[Nle]STWS[Aib]RKKK([PEG2′-PEG2′-γGlu-γGlu-γGlu-Palmitoyl])-NH2
EC50 (nM), OVCAR 5 cells (cAMP): 0.11 nM
EMax, OVCAR 5 cells (cAMP): 91%

B15: peptide of SEQ ID NO: 61 (peptide)
peptide: Ac-LEGREKVRAK(Ac)I[Aib][Aib]EGK(Ac)STWS[Aib]RKKK([PEG2′-PEG2′-γGlu-γGlu-γGlu-Palmitoyl])-NH2
EC50 (nM), OVCAR 5 cells (cAMP): 0.17 nM
EMax, OVCAR 5 cells (cAMP): 93%

B16: peptide of SEQ ID NO: 62 (peptide)
peptide: Ac-LEGREKVRAK(Ac)I[Aib][Aib]EG[Nle]STWS[Aib]RKK(Ac)K([PEG2′-PEG2′-γGlu-γGlu-γGlu-Palmitoyl])-NH2
EC50 (nM), OVCAR 5 cells (cAMP): 1.14 nM
EMax, OVCAR 5 cells (cAMP): 87%

B17: peptide of SEQ ID NO: 63 (peptide)
peptide: Ac-LEGREKVRAK(Ac)I[Aib][Aib]EG[Nle]STWS[Aib]RKK(Ac)K([PEG2′-PEG2′-PEG2′-γGlu-γGlu-γGlu-Palmitoyl])-NH2
EC50 (nM), OVCAR 5 cells (cAMP): 0.84 nM
EMax, OVCAR 5 cells (cAMP): 80%

B18: peptide of SEQ ID NO: 64 (peptide)
peptide: Ac-LEGREKVRAK(Ac)I[Aib][Aib]EG[Nle]STWS[Aib]RKK(Ac)K([PEG2″-PEG2″-PEG2″-PEG2″-γGlu-γGlu-γGlu-Palmitoyl])-NH2
EC50 (nM), OVCAR 5 cells (cAMP): 0.2 nM
EMax, OVCAR 5 cells (cAMP): 81%

B19: peptide of SEQ ID NO: 65 (peptide)
peptide: Ac-LEGREKVRAK(Ac)I[Aib][Aib]EG[Nle]STWS[αMeK]RKK(Ac)K([PEG2″-PEG2″-PEG2″-γGlu-γGlu-γGlu-γGlu-Palmitoyl])-NH2
EC50 (nM), OVCAR 5 cells (cAMP): 0.12 nM
EMax, OVCAR 5 cells (cAMP): 93%

B20: peptide of SEQ ID NO: 7 (peptide)
peptide: Ac-LEGREKVRAQI[Aib][Aib]EGMSTWS[Aib]RKK([γGlu-γGlu-γGlu-Palmitoyl])-NH2
SMILES: CCCCCCCCCCCCCCCC(=O)N[C@@H](CCC(=O)N[C@@H](CCC(=O)N[C@@H](CCC(=O)NCCCC[C@H](NC(=O)[C@H](CCCCN)NC(=O)[C@H](CCCNC(=N)N)NC(=O)C(C)(C)NC(=O)[C@H](CO)NC(=O)[C@H](Cc1c[nH]c2ccccc12)NC(=O)[C@@H](NC(=O)[C@H](CO)NC(=O)[C@H](CCSC)NC(=O)CNC(=O)[C@H](CCC(=O)O)NC(=O)C(C)(C)NC(=O)C(C)(C)NC(=O)[C@@H](NC(=O)[C@H](CCC(N)=O)NC(=O)[C@H](C)NC(=O)[C@H](CCCNC(=N)N)NC(=O)[C@@H](NC(=O)[C@H](CCCCN)NC(=O)[C@H](CCC(=O)O)NC(=O)[C@H](CCCNC(=N)N)NC(=O)CNC(=O)[C@H](CCC(=O)O)NC(=O)[C@H](CC(C)C)NC(C)=O)C(C)C)[C@@H](C)CC)[C@@H](C)O)C(N)=O)C(=O)O)C(=O)O)C(=O)O
EC50 (nM), OVCAR 5 cells (cAMP): 17.6 nM
EMax, OVCAR 5 cells (cAMP): 87%
